Patent US20210338656A1, “IMMUNOSTIMULATORY AGENTS IN COMBINATION WITH ANGIOGENESIS INHIBITORS” (Alkermes Pharma Ireland Limited, priority 2020, published 2021)

System: conventional CD4+ T cells, CD4+ Tregs, CD8+ T cells, macrophages, dendritic cells in tumors and spleens
Experiment: Flow cytometry of tumors and spleens of MC38 tumor-bearing mice, Day 10
Assay type: in vivo, mouse
Procedure: On Day 10 spleens and tumors were collected and weighed from all animals in Groups 7 through 12 and weighed prior to processing. Tissues from four animals in each group were processed to single cell suspensions for flow cytometry analysis at CRL-NC (described below). Tissues from the remaining six animals in each group were preserved in RNAlater, stored at −80° C.
Mouse spleen samples were dissociated by gently grinding the tissue across fine mesh with RPMI-1640 media and lysing red blood cells with ACK (ammonium chloride potassium) buffer according to the manufacturer's instructions. Samples were centrifuged and washed twice with PBS.
Mouse tumor samples were dissociated according to the manufacturer's instructions using the gentleMACS™ “Tumor Dissociation Kit” protocol. Tumor samples were filtered through a 70 μm cell strainer and rinsed twice in PBS/2.5% FBS buffer to remove enzymatic buffer. Total tumor sample and plated well volumes were measured and recorded.
Total tissue volumes and Cellometer counts from each sample were recorded. Final single cell suspensions were prepared in PBS pH 7.4 at 2×10^7 cells/mL and held briefly on ice prior to flow cytometry analysis, including conventional CD4^+ T cells, CD4^+ Tregs, CD8^+ T cells, macrophages, and dendritic cells (as % CD45^+ and as cells/mg tissue).
Single cell suspensions were added into 96-well plates and stained for 30 minutes at 4° C. with 100 μL of the reconstituted Live/Dead Aqua (Life Technologies) following manufacturer's instructions. After two washes with 150 μL of Staining Buffer, Fc receptors were blocked using TruStain Fc (Biolegend) in 100 μL volume for five to ten minutes on ice prior to immunostaining. Cells were stained for 30 minutes at 37° C. with antibody panels as described in the protocol. Cells were washed twice with 150 μL of Staining Buffer and resuspended in […] Staining Buffer for analysis. For staining of internal markers such as FoxP3, cells were permeabilized with 200 μL of Transcription Factor Fixation/Permeabilization buffer (eBioscience) for 15 minutes at 4° C. according to manufacturer's instructions. After two washes with 150 μL of Permeabilization Buffer (eBioscience), internal marker staining was carried out using 0.1 μg of each antibody diluted in 100 μL of Permeabilization Buffer for 30 minutes at 4° C. protected from the light. Cells were washed twice with 150 μL of Permeabilization Buffer and resuspended in 100 μL of Staining Buffer. 100 μL of Staining Buffer containing Countbright beads were added to each sample. Isotype-control antibodies were used as negative staining controls when deemed necessary.
All data were collected on a FortessaLSR (BD) and analyzed with FlowJo software (version 10.0.7r2, Tree Star, Inc.). Cell populations were defined as described in the protocol, and the gating strategy was determined by initial gating on singlets (FSC-H vs. FSCA) and then live cells, based on Live/Dead Aqua viability staining.

CNC(=O)c1cccc2cc(Oc3ccnc4cc(OCC5(N)CC5)c(OC)cc34)ccc12 [Lucitanib, 6-(7-((1-Aminocyclopropyl)-methoxy)-6-methoxyquinolin-4-yloxy)-N-methyl-1-naphthamide]
macrophages in spleens and tumors: decrease | conventional CD4+ T cells in spleen (compared to vehicle): increase

B1: SEQ ID NO: 2: mouse ortholog construct (murine surrogate) of the circularly permuted IL-2/IL-2Rα fusion protein of SEQ ID NO: 1 (protein)
chain: SKSFQLEDAENFISNIRVTVVKLKGSDNTFECQFDDESATVVDFLRRWIAFCQSIISTSPQGGSSSTQQQQQHLEQLLMDLQELLSRMENYRNLKLPRMLTFKFYLPKQATELKDLQCLEDELGPLRHVLDLTQGSGGGSELCLYDPPEVPNATFKALSYKNGTILNCECKRGFRRLKELVYMRCLGNSWSSNCQCTSNSHDKSRKQVTAQLEHQKEQQTTTDMQKPTQSMHQENLTGHCREPPPWKHEDSKRIYHFVEGQSVHYECIPGYKALQRGPAISICKMKCGKTGWTQPQLTCVDGSHHHHHH
modifications: Mouse cpIL-2IL-2R-alpha
CD4+ Tregs in spleens: decrease | CD8+ T cells in spleens and tumors: increase | Foxp3+ regulatory T cells (Tregs): without an increase | dendritic cells in spleens and tumors: increase | macrophages in spleens and tumors: decrease | conventional CD4+ T cells in spleen (compared to vehicle): decreased | numbers of conventional CD4+ T cells in tumors (compared to vehicle): neither treatment with SEQ ID NO: 2 nor the combination with lucitanib changed the numbers | peripheral CD8+ T cell expansion (compared to vehicle): significant peripheral CD8^+ T cell expansion
